12 substances from patent US20160009789A1 can be followed below.

The target of the first assay is Du156.12. Nature of the assay: ELISA. For orientation: In an ELISA, binding on a coated surface is turned into a signal by an enzyme label.
The term EC50 denotes the concentration needed to bring the measured effect to its halfway point. High values mean lower potency in that assay, low ones higher potency in that assay. Consider VRC01 Heavy chain: A56G, for which the EC50 was 0.101 µg/mL. On to VRC01 Heavy chain: I30T, for which the EC50 came to 0.063 µg/mL. VRC01 Heavy chain: K52N returned an EC50 of 0.056 µg/mL. Still for that read-out and setting: for VRC01 Heavy chain: P62K the value was 0.066 µg/mL.

Substance VRC01 Heavy chain: R53N displayed a half-maximal effective concentration (EC50) of 0.063 µg/mL.

In the case of VRC01 Heavy chain: R61Q, the half-maximal effective concentration (EC50) is 0.086 µg/mL.

For VRC01 Heavy chain: T33Y, the EC50 was found to be 0.048 µg/mL. Against the preceding substance, the EC50 is about 1.8-fold lower. The same measure, in the same setting: the value for VRC01 Heavy chain: V57T was 0.164 µg/mL; that for VRC01 Heavy chain: V73T was 0.097 µg/mL. Same read-out and setting: for VRC01 Heavy chain: Y74S the value was 0.071 µg/mL; for VRC01 Light chain: Y30S, 0.196 µg/mL.

In the next assay the target is Du156.12. The assay is described as follows: ELISA; deglycosylated.
The substance Deglycosylated VRC01 gave a concentration for a half-maximal effect (EC50) of 0.05 µg/mL.

The target of the next assay is HXBc2. Nature of the assay: ELISA; deglycosylated.
In turn, Deglycosylated VRC01 returned an EC50 of 0.045 µg/mL.
